Results reported in the supplement of paper PMC9233669.
This sample holds only a part of the variants without activity.

Key:
biotinyl-Leu-oxazolone = assay: self-aminoacylation, catalytic enhancement (BLO) (fold over background); higher = more active; k-Seq, kA / k0A0; sequences stand for … in GGGAAUGGAUCCACAUCUACGAAUUC…UUCACUGCAGACUUGACGAAGCUG
Outline: (§1)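 The uncatalyzed rate is the low-activity peak of a bimodal Gaussian fit, and catalytic enhancement is median kA divided by it. The kA values came from pseudo-first-order fits, with 1000 bootstraps, of per-sequence fraction reacted measured by streptavidin capture, triplicate qPCR and Illumina sequencing. Mutagenized RNA pools with a 21-nt variable region (0.43 μM) were reacted with each biotinyl-aminoacyl-oxazolone at 2–1250 μM in 50 μL HEPES/NaCl/KCl/MgCl2/CaCl2 buffer with 5% acetonitrile, pH 6.9–7.0, for 90 minutes at room temperature.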

biotinyl-Phe-oxazolone = assay: self-aminoacylation, catalytic enhancement (BFO) (fold over background); higher = more active; k-Seq, kA / k0A0; sequences stand for … in GGGAAUGGAUCCACAUCUACGAAUUC…UUCACUGCAGACUUGACGAAGCUG
Outline: as §1

biotinyl-Trp-oxazolone = assay: self-aminoacylation, catalytic enhancement (BWO) (fold over background); higher = more active; k-Seq, kA / k0A0; sequences stand for … in GGGAAUGGAUCCACAUCUACGAAUUC…UUCACUGCAGACUUGACGAAGCUG
Outline: as §1

biotinyl-Val-oxazolone = assay: self-aminoacylation, catalytic enhancement (BVO) (fold over background); higher = more active; k-Seq, kA / k0A0; sequences stand for … in GGGAAUGGAUCCACAUCUACGAAUUC…UUCACUGCAGACUUGACGAAGCUG
Outline: as §1

biotinyl-Met-oxazolone = assay: self-aminoacylation, catalytic enhancement (BMO) (fold over background); higher = more active; k-Seq, kA / k0A0; sequences stand for … in GGGAAUGGAUCCACAUCUACGAAUUC…UUCACUGCAGACUUGACGAAGCUG
Outline: as §1

biotinyl-Ile-oxazolone = assay: self-aminoacylation, catalytic enhancement (BIO) (fold over background); higher = more active; k-Seq, kA / k0A0; sequences stand for … in GGGAAUGGAUCCACAUCUACGAAUUC…UUCACUGCAGACUUGACGAAGCUG
Outline: as §1

Sequence | self-aminoacylation (biotinyl-Leu-oxazolone) | self-aminoacylation (biotinyl-Phe-oxazolone) | self-aminoacylation (biotinyl-Trp-oxazolone) | self-aminoacylation (biotinyl-Val-oxazolone) | self-aminoacylation (biotinyl-Met-oxazolone) | self-aminoacylation (biotinyl-Ile-oxazolone)
AUUCACUUAGGUCAUCGGUUG [Fam2.2 aminoacylation ribozyme variant] | 0.901 | 0.69 | 0.519 | 0.831 | 0.764 | 0.87
AUUAGCCUGGUCAUCGAAUGA [Fam2.1 aminoacylation ribozyme variant] | 1.48 | 1.23 | 1.27 | 1.39 | 1.43 | 1.36
AUUACCCUGGUCUUCAAGUGA [Fam2.1 aminoacylation ribozyme variant] | 4.28 | 23.8 | 5.67 | 2.67 | 4.91 | 2.76
AAUUUUGCUAAUAGUCGCAAU [Fam3.1 aminoacylation ribozyme variant] | 2.91 | 2.09 | 2.09 | 2.13 | 2.88 | 2.95
UUUACCCUAGUCAUCGAGUGA [Fam2.1 aminoacylation ribozyme variant] | 5.04 | 17.3 | 7.33 | 3.09 | 5.76 | 2.79
CCAUACAUCAAGCAAUCGGUC [Fam1B.1 aminoacylation ribozyme variant] | 0.841 | 1.06 | 0.687 | 0.981 | 0.792 | 1.04
AAGUUUGUCAAUAGUCGCAAG [Fam3.1 aminoacylation ribozyme variant] | 2.25 | 3.72 | 1.95 | 1.78 | 1.87 | 2.03
AUUACCCUGGUCAUCGCGCGA [Fam2.1 aminoacylation ribozyme variant] | 6.23 | 36.7 | 3.18 | 5.24 | 4.45 | 5.07
CAACUUCAAACAAUGGGUCUG [Fam1A.1 aminoacylation ribozyme variant] | 1.06 | 2.23 | 0.937 | 0.929 | 0.966 | 1.21
AAGUUUGCUAGUAAUCGCAAG [Fam3.1 aminoacylation ribozyme variant] | 0.733 | 0.961 | 0.849 | 0.819 | 0.789 | 0.761
CCGCACUGCAAGCAAUCGGUC [Fam1B.1 aminoacylation ribozyme variant] | 1.17 | 1 | 1.42 | 1.81 | 1.21 | 1.52
AAGAUUACUAAUAGUCGCAAG [Fam3.1 aminoacylation ribozyme variant] | 1.44 | 2.29 | 1.92 | 1.41 | 1.77 | 1.6
AUUUACCUCGGUCAUCGGGUG [Fam2.2 aminoacylation ribozyme variant] | 8.51 | 54.6 | 7.01 | 4.9 | 6.78 | 4.06
AAGUUGGCUAAUGGUCGCAAG [Fam3.1 aminoacylation ribozyme variant] | 1.1 | 1.01 | 1.23 | 1.4 | 1.28 | 1.29
ACUACCCUGGUCAUCCAGUGA [Fam2.1 aminoacylation ribozyme variant] | 5.01 | 21.2 | 5.86 | 3.27 | 5.05 | 3.37
CUACUUCAAACAACGGGUCUG [Fam1A.1 aminoacylation ribozyme variant] | 0.627 | 0.618 | 0.697 | 0.904 | 0.716 | 0.937
AUUCAUCUAGGUCAUCGGAUG [Fam2.2 aminoacylation ribozyme variant] | 0.802 | 0.576 | 0.846 | 1.04 | 0.879 | 0.962
AAGUAUGCUAAUAAUCGCAAG [Fam3.1 aminoacylation ribozyme variant] | 1.14 | 2 | 1.39 | 1.05 | 1.28 | 1.45
CCACACUUAUAGCAAUCGGUC [Fam1B.1 aminoacylation ribozyme variant] | 0.722 | 0.926 | 0.886 | 0.927 | 0.667 | 1
AUUCACCUGGGGCAUCGGGUG [Fam2.2 aminoacylation ribozyme variant] | 5.93 | 36.1 | 7.38 | 6.59 | 5.8 | 4.42
AAGUUUAUUAAUAGUCGCAAG [Fam3.1 aminoacylation ribozyme variant] | 1.53 | 2.49 | 1.94 | 1.82 | 1.95 | 1.74
CUACUUCAAACCAUCGGUCUC [Fam1A.1 aminoacylation ribozyme variant] | 0.496 | 0.936 | 0.731 | 0.72 | 0.555 | 0.708
AUCCACCUAGGCCAUCGGGUG [Fam2.2 aminoacylation ribozyme variant] | 5.49 | 27.4 | 6.22 | 4.12 | 3.46 | 3.55
AUUACCCUUAUCAUCGAGUGA [Fam2.1 aminoacylation ribozyme variant] | 13.2 | 60.8 | 16.7 | 6.51 | 14.1 | 5.68
AUUCACCUCGGACAUCGGGUG [Fam2.2 aminoacylation ribozyme variant] | 6.78 | 40.1 | 5.08 | 4.74 | 4.76 | 3.09
AUUCAACUUGGUCAUCGGGUG [Fam2.2 aminoacylation ribozyme variant] | 6.72 | 34.1 | 4.45 | 3.29 | 5.25 | 3.85

Sequence | self-aminoacylation (biotinyl-Leu-oxazolone) | self-aminoacylation (biotinyl-Phe-oxazolone) | self-aminoacylation (biotinyl-Trp-oxazolone) | self-aminoacylation (biotinyl-Val-oxazolone) | self-aminoacylation (biotinyl-Met-oxazolone) | self-aminoacylation (biotinyl-Ile-oxazolone)
ACUCACCUAGGCCAUCGGGUG [Fam2.2 aminoacylation ribozyme variant] | 5.87 | 34.2 | 5.91 | 6.46 | 4.87 | 4.74
CUACUUCAAACGCUCGGUCUG [Fam1A.1 aminoacylation ribozyme variant] | 1.09 | 0.793 | 0.637 | 0.828 | 0.592 | 0.741
AAUACCCUGGCCAUCGAGUGA [Fam2.1 aminoacylation ribozyme variant] | 2.71 | 2.33 | 3.4 | 1.64 | 2.08 | 1.85
AUUACCCUGGUCCUCAAGUGA [Fam2.1 aminoacylation ribozyme variant] | 2.29 | 7.45 | 3.02 | 2.02 | 2.16 | 1.64
AACUUUGCUAAUAGUCGCAUG [Fam3.1 aminoacylation ribozyme variant] | 2.79 | 2.98 | 2.85 | 1.89 | 2.35 | 2.77
AUUCACGUAGGUCAUCAGGUG [Fam2.2 aminoacylation ribozyme variant] | 2.7 | 5.34 | 2.88 | 2.24 | 2.77 | 1.99
UCACACUUCAAGCCAUCGGUC [Fam1B.1 aminoacylation ribozyme variant] | 1.1 | 0.948 | 0.854 | 1.24 | 1.08 | 1.01
AUUACCCUGGUCAUCGAUAGA [Fam2.1 aminoacylation ribozyme variant] | 0.537 | 0.5 | 1.23 | 0.77 | 0.638 | 0.721
CCACAUUUGAAGCAAUCGGUC [Fam1B.1 aminoacylation ribozyme variant] | 1.17 | 1.09 | 0.886 | 1.31 | 1.04 | 1.28
AUUCUCCUAGGUUAUCGGGUG [Fam2.2 aminoacylation ribozyme variant] | 8.02 | 40.2 | 6.28 | 3.88 | 6.52 | 4.08
AUACUUCAAACAAUUGGUCUG [Fam1A.1 aminoacylation ribozyme variant] | 0.956 | 1.16 | 1.16 | 1.04 | 0.903 | 1.19
AUAACCCUGGUCAUCGAGUGU [Fam2.1 aminoacylation ribozyme variant] | 17.9 | 69.6 | 16.4 | 7.4 | 20 | 6.98
CUUCACCUAGUUCAUCGGGUG [Fam2.2 aminoacylation ribozyme variant] | 2.87 | – | 2.53 | 2.27 | 2.54 | 2.15
GAGUUGGCUAAUAGUCGCAAG [Fam3.1 aminoacylation ribozyme variant] | – | 2.86 | 3.02 | 2.22 | 2.04 | 2.02
AAGCGUGCUAAUAGUCGCAAG [Fam3.1 aminoacylation ribozyme variant] | – | 4.08 | 2.33 | 2.05 | 2.62 | 2.02
CCACACUUCAAGCAACCGGGC [Fam1B.1 aminoacylation ribozyme variant] | 3.43 | 3.1 | 4.79 | 3.18 | – | 2.77
AACUUUGCUAAUAGUCGCACG [Fam3.1 aminoacylation ribozyme variant] | 2.15 | 3.22 | 3.12 | 2.05 | – | 2.49
AUUCACCUAGGUCAUCGCCUG [Fam2.2 aminoacylation ribozyme variant] | 3.01 | 8.71 | 2.11 | 2.44 | – | 2.01
AUUCUCCUAGGUCAUCGGGGG [Fam2.2 aminoacylation ribozyme variant] | 3.88 | – | 3 | 3.29 | 3.48 | 2.7
AAAUUUUCUAAUAGUCGCAAG [Fam3.1 aminoacylation ribozyme variant] | 2.46 | 2.42 | – | 2.11 | – | 2.15
CCACACUUCAGGCAAUCGCUC [Fam1B.1 aminoacylation ribozyme variant] | 2.71 | 17.5 | – | 2.04 | – | 2.5
CCAAACUUCAAGCAAUCGGGC [Fam1B.1 aminoacylation ribozyme variant] | – | – | 2.01 | 2.26 | 2.17 | 2.08
AUUCACCGAGCUCAUCGGGUG [Fam2.2 aminoacylation ribozyme variant] | 2.46 | 17.4 | – | 3.41 | 2.08 | 2.4
AACUUUGCUAAUAGUCGCAAG [Fam3.1 aminoacylation ribozyme variant] | 2.46 | 3.71 | 2.41 | – | 2.2 | 2.22
CCACACCUCAAGCAUUCGGUC [Fam1B.1 aminoacylation ribozyme variant] | – | 2.12 | 2.49 | 2.54 | – | 2.26
CCAGACUUCAAGCAUUCGGUC [Fam1B.1 aminoacylation ribozyme variant] | 2.08 | – | – | 2.16 | 2.12 | 2.03
